Data set [1] addresses full-length AdeR (AdeR_FL), response regulator of Acinetobacter baumannii (Acinetobacter baumannii ATCC19606). As to the kind of experiment: SEC. In general terms: Size exclusion chromatography separates by hydrodynamic size, large species first.
Data set [2] addresses AdeR receiver domain with linker sequence (AdeR_RD, 1-137) (Acinetobacter baumannii ATCC19606). The data set is described as follows: SEC.
In another data set the target is T1, AdeR_FL D63E (Acinetobacter baumannii ATCC19606, UniProt E1A0Z5 1-247, D63E).
T1 sequence: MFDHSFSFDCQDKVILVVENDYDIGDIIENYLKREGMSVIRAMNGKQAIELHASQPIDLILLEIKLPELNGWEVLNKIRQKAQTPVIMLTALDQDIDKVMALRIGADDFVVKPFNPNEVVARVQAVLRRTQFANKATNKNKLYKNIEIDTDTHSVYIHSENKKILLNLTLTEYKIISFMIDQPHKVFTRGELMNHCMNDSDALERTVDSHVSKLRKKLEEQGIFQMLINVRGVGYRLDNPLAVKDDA
As to the kind of experiment: ITC. On the technique in general: In ITC the heat of successive injections is recorded.

The target in the next data set is T2, AdeR_FL R205A/R215A (Acinetobacter baumannii ATCC19606, UniProt E1A0Z5 1-247, R205A;R215A).
T2 sequence: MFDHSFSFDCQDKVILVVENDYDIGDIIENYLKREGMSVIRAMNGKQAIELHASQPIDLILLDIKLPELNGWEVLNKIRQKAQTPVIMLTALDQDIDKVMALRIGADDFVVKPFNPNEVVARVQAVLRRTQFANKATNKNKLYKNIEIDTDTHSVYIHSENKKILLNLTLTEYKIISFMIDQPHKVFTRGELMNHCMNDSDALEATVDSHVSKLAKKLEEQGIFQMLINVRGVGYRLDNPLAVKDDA
As to the kind of experiment: ITC.

In a further data set the target is T3, AdeR_FL (Acinetobacter baumannii ATCC19606, UniProt E1A0Z5 1-247).
T3 sequence: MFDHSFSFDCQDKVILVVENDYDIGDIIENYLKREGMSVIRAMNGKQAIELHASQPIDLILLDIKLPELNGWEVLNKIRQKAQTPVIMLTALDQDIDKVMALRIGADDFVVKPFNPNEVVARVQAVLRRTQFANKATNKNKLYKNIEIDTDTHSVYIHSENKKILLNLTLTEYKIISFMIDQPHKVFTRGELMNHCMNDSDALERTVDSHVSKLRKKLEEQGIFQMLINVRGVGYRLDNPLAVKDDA
As to the kind of experiment: ITC.

The next data set concerns the target T4, AdeR_FL R122A (Acinetobacter baumannii ATCC19606, UniProt E1A0Z5 1-247, R122A).
T4 sequence: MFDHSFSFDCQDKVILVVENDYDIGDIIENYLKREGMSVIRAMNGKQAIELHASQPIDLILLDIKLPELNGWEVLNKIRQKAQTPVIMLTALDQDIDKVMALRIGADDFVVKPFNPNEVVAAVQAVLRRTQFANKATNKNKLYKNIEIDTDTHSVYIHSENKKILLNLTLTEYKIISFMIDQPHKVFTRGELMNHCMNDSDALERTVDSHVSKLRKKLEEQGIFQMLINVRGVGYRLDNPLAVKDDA
The data set is described as follows: ITC.

The target of data set [3] is T5, AdeR_FL R231A (Acinetobacter baumannii ATCC19606, UniProt E1A0Z5 1-247, R231A).
T5 sequence: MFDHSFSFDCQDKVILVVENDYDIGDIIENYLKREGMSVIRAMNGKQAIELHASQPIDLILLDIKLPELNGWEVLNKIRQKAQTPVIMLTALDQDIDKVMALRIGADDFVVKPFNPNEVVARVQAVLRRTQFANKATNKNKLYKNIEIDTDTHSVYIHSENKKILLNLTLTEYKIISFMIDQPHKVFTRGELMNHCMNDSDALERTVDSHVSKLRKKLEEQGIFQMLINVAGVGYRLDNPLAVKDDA
The data set is described as follows: ITC.

A further data set deals with T6, AdeR_DBD (Acinetobacter baumannii ATCC19606, UniProt E1A0Z5 138-247).
T6 sequence: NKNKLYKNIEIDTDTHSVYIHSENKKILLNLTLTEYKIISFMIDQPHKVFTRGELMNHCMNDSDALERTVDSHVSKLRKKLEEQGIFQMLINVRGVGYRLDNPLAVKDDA
The data set is described as follows: ITC.

Data set [4] addresses T5, AdeR_FL R231A. The data set is described as follows: EMSA.

For orientation: stoichiometry N means the number of molecules, sites or subunits per partner or assembly. The term Kd denotes the concentration at which binding is half-saturated.

Molecule “full-length AdeR (AdeR_FL), response regulator of Acinetobacter baumannii (natural protein)” came in with a stoichiometry N in data set [1] of 2.
Turning to “AdeR receiver domain with linker sequence (AdeR_RD, 1-137) (domain or fragment)”, the stoichiometry N in data set [2] worked out at 2.

B1: 25 bp intercistronic DNA (dsDNA)
DNA 1: TAAAGTGTGGAGTAAGTGTGGAGAA
DNA 2: TTCTCCACACTTACTCCACACTTTA
On to B1, for which the binding result with AdeR_FL D63E was “binds”; with AdeR_FL R205A/R215A, “no binding”; with AdeR_FL R231A [3] it was “no binding”. Further, the figures for the Kd with AdeR_FL, with AdeR_FL R122A and in the data set with AdeR_DBD were 20 nM, 1000 nM and 2200 nM, respectively.

B2: biotin 25 bp intercistronic DNA (dsDNA)
DNA 1: TAAAGTGTGGAGTAAGTGTGGAGAA
DNA 2: TTCTCCACACTTACTCCACACTTTA
As to B2, the binding result with AdeR_FL R231A [4] is on record as “no binding”.

These data come from article PMC5766154.
